We go through two sequences from publication PMC10377175.

Data set [1] deals with T1, ENOX2 (tNOX) (Homo sapiens) (UniProt Q16206).
T1 sequence: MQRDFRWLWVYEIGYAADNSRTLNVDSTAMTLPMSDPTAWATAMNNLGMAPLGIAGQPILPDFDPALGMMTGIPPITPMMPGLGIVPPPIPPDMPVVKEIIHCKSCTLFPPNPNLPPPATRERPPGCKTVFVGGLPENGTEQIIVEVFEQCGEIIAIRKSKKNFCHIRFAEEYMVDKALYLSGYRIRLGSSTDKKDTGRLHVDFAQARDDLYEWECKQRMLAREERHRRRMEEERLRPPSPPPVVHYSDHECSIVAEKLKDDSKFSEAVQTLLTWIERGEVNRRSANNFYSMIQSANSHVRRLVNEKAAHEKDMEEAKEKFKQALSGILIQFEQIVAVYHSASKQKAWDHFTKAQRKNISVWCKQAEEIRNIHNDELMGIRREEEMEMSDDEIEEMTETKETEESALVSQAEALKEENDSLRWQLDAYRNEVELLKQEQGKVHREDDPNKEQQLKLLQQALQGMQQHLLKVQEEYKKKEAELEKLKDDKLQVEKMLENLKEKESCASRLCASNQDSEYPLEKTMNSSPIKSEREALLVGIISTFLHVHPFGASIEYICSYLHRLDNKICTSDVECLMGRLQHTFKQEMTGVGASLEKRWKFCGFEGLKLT
The experiment in a line: electrochemical (E-DNA, square wave voltammetry). The settings on record: apparent Kd; 0.1-200 nM ENOX2; PBS with 1 mM MgCl2; internal methylene blue on thymine T21 (printed after ...CATCTTT); 5' disulfide linker reduced to thiol; EMSA: 0.7% agarose, 0.5x TBE (65 mM Tris, 22.5 mM boric acid, 1.25 mM EDTA, 0.5 mM MgCl2, 0.005% Tween-20, pH 8.3); E-DNA: PBS pH 7.4 (137 mM NaCl, 10 mM …). (A gel shift assay detects complexes by their altered migration in electrophoresis.)

Data set [2] concerns the target T1, ENOX2 (tNOX) (Homo sapiens). In words: EMSA. Particulars: apparent Kd; 1 nM aptamer, 0-100 nM ENOX2; 0.5 mM MgCl2; EMSA: 0.7% agarose, 0.5x TBE (65 mM Tris, 22.5 mM boric acid, 1.25 mM EDTA, 0.5 mM MgCl2, 0.005% Tween-20, pH 8.3); E-DNA: PBS pH 7.4 (137 mM NaCl, 10 mM …).

With “TAAAGATCCCTGTTCATCTTTTCTCGAGTGTTCTTTAGAACAATGAATCTTT [ENOX2 E-DNA biosensor aptamer]”, in data set [1], the Kd came out at 6 nM.
For the sequence “TTTTTTAGATCCCTGTTCATCTGTCTCGAGTGTTCTTTAATGATCTTTTT [ENOX2-binding aptamer, 5' fluorescein]”, the Kd in data set [2] turned out to be 0.4 nM.
